Assays:
[1] = target: T1, rat Smoothened (rSmo), Flag epitope tagged, expressed on transfected cells (rat, UniProt P97698 33-793); assay: staining of transfected cells exposed to the ligand
T1 construct: residues 33-793 derived from that statement; Transiently expressed in COS-7 or 293 cells; co-immunoprecipitations were done from cell lysates; also called Flag tagged rSmo
Experimental: (§1) Binding assays were conducted to test binding between cells expressing rSmo or dSmo and (1) epitope tagged SHH-N, (2) an IgG-SHH-N chimera, and (3) an epitope tagged Desert HH. For visualization of SHH binding, COS-7 cells (Genentech, Inc.) transiently expressing rSmo or mPatched (murine Patched) were exposed to epitope tagged SHH-N (2 hours at 4° C.), washed 4 times with PBS, then fixed and stained with a cy3-conjugated anti-human IgG (Jackson ImmunoResearch) (for IgG-SHH-N) or anti-Flag M2 antibody (Kodak/IBI) (for Flag-tagged SHH-N).

[2] = target: T2, Drosophila Smoothened (dSmo), epitope tagged, expressed on transfected cells (Drosophila, UniProt P91682 32-1036); assay: as above
T2 construct: cDNA described in Alcedo et al; also called dros.smo
T2 sequence: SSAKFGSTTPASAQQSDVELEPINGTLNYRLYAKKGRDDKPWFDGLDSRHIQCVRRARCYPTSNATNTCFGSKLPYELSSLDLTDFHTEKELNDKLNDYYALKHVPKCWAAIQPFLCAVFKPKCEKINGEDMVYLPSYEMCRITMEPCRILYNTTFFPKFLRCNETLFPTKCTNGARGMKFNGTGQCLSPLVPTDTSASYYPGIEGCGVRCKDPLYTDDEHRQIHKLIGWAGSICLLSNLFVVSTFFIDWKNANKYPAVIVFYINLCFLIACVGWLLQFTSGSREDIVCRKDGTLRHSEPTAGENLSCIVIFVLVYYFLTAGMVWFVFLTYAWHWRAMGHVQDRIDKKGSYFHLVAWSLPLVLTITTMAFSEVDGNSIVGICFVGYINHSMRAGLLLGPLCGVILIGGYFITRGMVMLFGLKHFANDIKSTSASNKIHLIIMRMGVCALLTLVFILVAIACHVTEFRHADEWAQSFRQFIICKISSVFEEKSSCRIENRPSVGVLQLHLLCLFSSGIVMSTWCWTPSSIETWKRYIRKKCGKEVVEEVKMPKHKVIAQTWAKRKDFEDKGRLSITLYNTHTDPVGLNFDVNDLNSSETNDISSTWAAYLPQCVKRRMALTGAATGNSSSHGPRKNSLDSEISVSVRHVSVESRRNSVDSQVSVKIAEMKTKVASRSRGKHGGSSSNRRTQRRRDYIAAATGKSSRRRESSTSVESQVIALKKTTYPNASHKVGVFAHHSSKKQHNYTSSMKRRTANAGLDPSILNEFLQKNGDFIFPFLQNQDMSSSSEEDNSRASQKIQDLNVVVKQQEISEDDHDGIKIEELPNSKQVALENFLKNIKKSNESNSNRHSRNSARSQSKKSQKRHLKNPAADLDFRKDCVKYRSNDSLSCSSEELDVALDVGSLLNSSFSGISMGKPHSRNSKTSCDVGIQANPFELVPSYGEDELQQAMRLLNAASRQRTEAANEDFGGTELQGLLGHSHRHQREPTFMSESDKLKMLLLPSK
Experimental: as §1

T1 sequence (P97698 33-793): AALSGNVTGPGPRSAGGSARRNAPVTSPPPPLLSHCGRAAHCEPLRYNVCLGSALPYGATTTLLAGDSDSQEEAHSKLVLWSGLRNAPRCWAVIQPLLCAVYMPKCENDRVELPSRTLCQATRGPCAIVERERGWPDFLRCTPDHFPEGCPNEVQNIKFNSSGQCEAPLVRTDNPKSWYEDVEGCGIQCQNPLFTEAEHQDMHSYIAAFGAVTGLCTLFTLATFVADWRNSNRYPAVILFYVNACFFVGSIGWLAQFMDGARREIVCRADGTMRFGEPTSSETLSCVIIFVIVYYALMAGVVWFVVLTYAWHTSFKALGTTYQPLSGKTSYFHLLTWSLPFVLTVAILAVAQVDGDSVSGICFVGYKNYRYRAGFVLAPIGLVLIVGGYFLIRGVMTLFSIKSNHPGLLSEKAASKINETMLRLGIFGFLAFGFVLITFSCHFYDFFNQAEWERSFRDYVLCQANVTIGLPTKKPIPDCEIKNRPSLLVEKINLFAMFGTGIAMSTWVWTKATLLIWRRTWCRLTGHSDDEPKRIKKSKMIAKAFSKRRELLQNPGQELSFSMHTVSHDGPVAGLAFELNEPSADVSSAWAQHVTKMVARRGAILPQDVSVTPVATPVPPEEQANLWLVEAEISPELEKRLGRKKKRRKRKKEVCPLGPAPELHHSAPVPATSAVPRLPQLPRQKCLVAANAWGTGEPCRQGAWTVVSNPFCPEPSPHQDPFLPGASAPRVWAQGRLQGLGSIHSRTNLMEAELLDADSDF

binding result [1]: no binding
binding result [2]: no binding
B1: epitope tagged Desert HH (ligand, not shown: small tags and cut ends)
chain: not shown
